Source: patent US5622933A, “Multiple branch peptide constructions for use against HIV” (priority 1993, dated 1997)
Several values for one entry are separate records, joined by “and”; a condition that tells them apart may be missing. Equal entries are not always repeated. Entries after “also recorded” stand apart in the source; their conditions may differ. Ends that are not written are not given here.

Assays:
[1] = test system: GalCer receptor; assay: Binding of gp120 to GalCer (HPTLC binding assay)
Procedure: In another experiment with the same MBPCs, the effect of MBPCs on the binding of gp120 to GalCer was analyzed using a high performance thin layer chromatography (HPTLC) binding assay. MBPCs (10^-4 M) were preincubated with GalCer for 1 hour at room temperature. After thorough washing, the HPTLC plates were incubated with HIV-1 recombinant gp120 (2.5 ug/ml) followed by rabbit anti-gp120 and ^125 I-goat anti-rabbit IgG. The plates were washed in PBS and exposed to Amersham Hyperfilm MP for 8 hours. As shown in FIG. 5B treatment of HT-29 cells with active MBPCs protected the cells from infection by HIV-1 (NDK isolate). This antiviral effect was correlated with its ability to block the binding of gp120 to GalCer.

[2] = test system: New Zealand rabbits; assay: Immunogenicity in rabbits (serum ELISA for anti MBPC.3 antibodies); format: in vivo, rabbit
Procedure: […] This procedure was repeated subcutaneously with incomplete Freud's adjuvant on days 30, 60, 90 and 120. Sera were tested by ELISA, looking for specific anti MBPC.3 antibodies. Data presented here is from the last serum samples (120+7 days).
[…] After saturation with 400 μL of casein (5 g/100 ml), different serum dilutions were added for 2 hours at 37° C. The controls were sera from non-immunized rabbits and mice. After rinsing (5×), 50 μl of 1:5000 of peroxidase-labeled swine anti-rabbit IgG or anti-mouse IgG (Dakopatts, Copenhagen, Denmark) were added for 1 hour at 37° C. After further rinsing (5×), 100 μl of ortho-phenylenediamine were added for 30 min in the dark at room temperature. The reaction was stopped by adding 50 μl of 4N sulfuric acid, and optical density (OD) ratios were determined at 492/620 nm.

[3] = test system: 8E5 cells; assay: Toxicity in the cell fusion test (MTT assay or trypan blue exclusion); format: cell-based; conditions: 5 × 10^-5 M; listed as [RKSIHIGPGRAFYT]4 -MLC

For (GPGRAF)8 -(K)4 -(K)2 -K-βA-OH [MBPC.3], the “binding to / activity on the Galactosyl Ceramide receptor” value [1] was “bind to the second receptor”, the “optical density (OD) ratio 492/620 nm (×10^3)” value ([2]; plate 1, rabbit serum 10^-2, coat 0.5 μg MBPC.3/ml) was 968 and 981 and the “optical density (OD) ratio 492/620 nm (×10^3)” value ([2]; plate 1, rabbit serum 10^-2, coat 1 μg MBPC.3/ml) was 1280 and 1267. For the same substance, the “optical density (OD) ratio 492/620 nm (×10^3)” value ([2]; plate 1, rabbit serum 10^-2, coat 5 μg MBPC.3/ml) was 2000, the “optical density (OD) ratio 492/620 nm (×10^3)” value ([2]; plate 1, rabbit serum 10^-2, coat 10 μg MBPC.3/ml) was 2000 and the “optical density (OD) ratio 492/620 nm (×10^3)” value ([2]; plate 1, rabbit serum 10^-3, coat 0.5 μg MBPC.3/ml) was 318 and 296. The “optical density (OD) ratio 492/620 nm (×10^3)” value ([2]; plate 1, rabbit serum 10^-3, coat 1 μg MBPC.3/ml) was 346 and 349, the “optical density (OD) ratio 492/620 nm (×10^3)” value ([2]; plate 1, rabbit serum 10^-3, coat 5 μg MBPC.3/ml) was 2000 and the “optical density (OD) ratio 492/620 nm (×10^3)” value ([2]; plate 1, rabbit serum 10^-3, coat 10 μg MBPC.3/ml) was 2000. For the same substance, the “optical density (OD) ratio 492/620 nm (×10^3)” value ([2]; plate 1, rabbit serum 10^-4, coat 0.5 μg MBPC.3/ml) was 145 and 140, the “optical density (OD) ratio 492/620 nm (×10^3)” value ([2]; plate 1, rabbit serum 10^-4, coat 1 μg MBPC.3/ml) was 182 and 193 and the “optical density (OD) ratio 492/620 nm (×10^3)” value ([2]; plate 1, rabbit serum 10^-4, coat 5 μg MBPC.3/ml) was 796 and 809. For the same substance, the “optical density (OD) ratio 492/620 nm (×10^3)” value ([2]; plate 1, rabbit serum 10^-4, coat 10 μg MBPC.3/ml) was 924 and 823, the “optical density (OD) ratio 492/620 nm (×10^3)” value ([2]; plate 2, rabbit serum 10^-2, coat 5 μg MBPC.3/ml) was 2000 and the “optical density (OD) ratio 492/620 nm (×10^3)” value ([2]; plate 2, rabbit serum 10^-2, coat 10 μg MBPC.3/ml) was 2000. The “optical density (OD) ratio 492/620 nm (×10^3)” value ([2]; plate 2, rabbit serum 10^-3, coat 0.5 μg MBPC.3/ml) was 197 and 181, the “optical density (OD) ratio 492/620 nm (×10^3)” value ([2]; plate 2, rabbit serum 10^-3, coat 5 μg MBPC.3/ml) was 2000 and the “optical density (OD) ratio 492/620 nm (×10^3)” value ([2]; plate 2, rabbit serum 10^-3, coat 10 μg MBPC.3/ml) was 2000. For the same substance, the “optical density (OD) ratio 492/620 nm (×10^3)” value ([2]; plate 2, rabbit serum 10^-4, coat 0.5 μg MBPC.3/ml) was 80 and 74, the “optical density (OD) ratio 492/620 nm (×10^3)” value ([2]; plate 2, rabbit serum 10^-4, coat 1 μg MBPC.3/ml) was 113 and 84 and the “optical density (OD) ratio 492/620 nm (×10^3)” value ([2]; plate 2, rabbit serum 10^-4, coat 5 μg MBPC.3/ml) was 678 and 626. The “optical density (OD) ratio 492/620 nm (×10^3)” value ([2]; plate 2, rabbit serum 10^-4, coat 10 μg MBPC.3/ml) was 734 and 689, the “optical density (OD) ratio 492/620 nm (×10^3)” value ([2]; plate 3, rabbit serum 10^-2, coat 0.5 μg MBPC.3/ml) was 416 and 287 and the “optical density (OD) ratio 492/620 nm (×10^3)” value ([2]; plate 3, rabbit serum 10^-2, coat 1 μg MBPC.3/ml) was 402 and 401. For the same substance, the “optical density (OD) ratio 492/620 nm (×10^3)” value ([2]; plate 3, rabbit serum 10^-2, coat 5 μg MBPC.3/ml) was 857 and 868, the “optical density (OD) ratio 492/620 nm (×10^3)” value ([2]; plate 3, rabbit serum 10^-2, coat 10 μg MBPC.3/ml) was 818 and 953 and the “optical density (OD) ratio 492/620 nm (×10^3)” value ([2]; plate 3, rabbit serum 10^-3, coat 0.5 μg MBPC.3/ml) was 148 and 155. For the same substance, the “optical density (OD) ratio 492/620 nm (×10^3)” value ([2]; plate 3, rabbit serum 10^-3, coat 1 μg MBPC.3/ml) was 168 and 150, the “optical density (OD) ratio 492/620 nm (×10^3)” value ([2]; plate 3, rabbit serum 10^-3, coat 5 μg MBPC.3/ml) was 323 and 314 and the “optical density (OD) ratio 492/620 nm (×10^3)” value ([2]; plate 3, rabbit serum 10^-3, coat 10 μg MBPC.3/ml) was 342 and 328. For the same substance, the “optical density (OD) ratio 492/620 nm (×10^3)” value ([2]; plate 3, rabbit serum 10^-4, coat 0.5 μg MBPC.3/ml) was 64 and 69, the “optical density (OD) ratio 492/620 nm (×10^3)” value ([2]; plate 3, rabbit serum 10^-4, coat 1 μg MBPC.3/ml) was 72 and 89 and the “optical density (OD) ratio 492/620 nm (×10^3)” value ([2]; plate 3, rabbit serum 10^-4, coat 5 μg MBPC.3/ml) was 170 and 169. The “optical density (OD) ratio 492/620 nm (×10^3)” value ([2]; plate 3, rabbit serum 10^-4, coat 10 μg MBPC.3/ml) was 191 and 184, the “optical density (OD) ratio 492/620 nm (×10^3)” value ([2]; plate 4, rabbit serum 10^-2, coat 0.5 μg MBPC.3/ml) was 424 and 425 and the “optical density (OD) ratio 492/620 nm (×10^3)” value ([2]; plate 4, rabbit serum 10^-2, coat 1 μg MBPC.3/ml) was 419 and 447. For the same substance, the “optical density (OD) ratio 492/620 nm (×10^3)” value ([2]; plate 4, rabbit serum 10^-2, coat 5 μg MBPC.3/ml) was 749 and 792, the “optical density (OD) ratio 492/620 nm (×10^3)” value ([2]; plate 4, rabbit serum 10^-2, coat 10 μg MBPC.3/ml) was 849 and 843 and the “optical density (OD) ratio 492/620 nm (×10^3)” value ([2]; plate 4, rabbit serum 10^-3, coat 0.5 μg MBPC.3/ml) was 163 and 154. The “optical density (OD) ratio 492/620 nm (×10^3)” value ([2]; plate 4, rabbit serum 10^-3, coat 1 μg MBPC.3/ml) was 221 and 151, the “optical density (OD) ratio 492/620 nm (×10^3)” value ([2]; plate 4, rabbit serum 10^-3, coat 5 μg MBPC.3/ml) was 310 and 304 and the “optical density (OD) ratio 492/620 nm (×10^3)” value ([2]; plate 4, rabbit serum 10^-3, coat 10 μg MBPC.3/ml) was 332 and 314. For the same substance, the “titers of anti-GPGRAF antibodies” value ([2]; rabbits injected) was “did not produce significant titers”.

In the case of “(RKSIHIGPGRAFYT)4 -(K)2 -K-βA-OH (also: four copies on lysine core (K)2-K-βA-OH) [MBPC.5, tetradecapeptide MBPC]”, the Toxicity [3] is reported as “Toxic; also recorded: induced some toxicity”.
